Experimental data: article PMC8391104, “Molecular mechanism of Mad1 kinetochore targeting by phosphorylated Bub1” (EMBO Reports, 2021)
Where no end group is shown, it is not given here. [ ]: non-standard residue; d: D form. pT = C[C@@H](OP(=O)(O)O)[C@H](N)C(=O)O; pS = N[C@@H](COP(=O)(O)O)C(=O)O

B3: Mad1 C-terminal domain (Mad1^CTD) homodimer, residues 597-718 (domain or fragment, human, UniProt Q9Y6D9 597-718, looked up)
chain: SSKEVAELKKQVESAELKNQRLKEVFQTKIQEFRKACYTLTGYQIDITTENQYRLTSLYAEHPGDCLIFKATSPSGSKMQLLETEFSHTVGELIEVHLRRQDSIPAFLSSLTLELFSRQTVA
notes: the C-terminal residue is Ala718; For NMR the same construct was made 15N-labelled or 2H,13C,15N-labelled in M9 minimal medium; also called wild-type Mad1^CTD; WT Mad1^CTD; source: E. coli Rosetta 2 (DE3), purified (Strep-Tactin, TEV cleavage, Resource Q, Superdex 75); not shown: double Strep, N-terminal, cleaved; His6, N-terminal, cleaved

What was measured:
[1] = target: T1, Mad1^CTD R617A (human, UniProt Q9Y6D9 597-718, R617A); assay: ITC; Bub1^CD1 peptide (0.3-1.5 mM) titrated into Mad1 (30-100 µM) in the cell; 20°C; 20 mM HEPES pH 7.5, 100 mM NaCl, 1 mM TCEP; single-site model; stoichiometry counted on dimeric Mad1^CTD; conditions: both partners purified
T1 construct: also called R617A mutant of Mad1; source: E. coli Rosetta 2 (DE3), purified (Strep-Tactin, TEV cleavage, Resource Q, Superdex 75); not shown: double Strep, N-terminal, cleaved; His6, N-terminal, cleaved
T1 sequence (looked up): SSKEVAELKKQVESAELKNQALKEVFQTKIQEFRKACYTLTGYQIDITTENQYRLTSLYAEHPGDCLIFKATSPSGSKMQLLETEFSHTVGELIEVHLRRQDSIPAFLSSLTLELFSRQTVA

[2] = target: T2, Mad1^CTD Q627A (human, UniProt Q9Y6D9 597-718, Q627A); assay: as above; conditions: both partners purified
T2 construct: also called alanine substitution of Gln627; source: E. coli Rosetta 2 (DE3), purified (Strep-Tactin, TEV cleavage, Resource Q, Superdex 75); not shown: double Strep, N-terminal, cleaved; His6, N-terminal, cleaved
T2 sequence (looked up): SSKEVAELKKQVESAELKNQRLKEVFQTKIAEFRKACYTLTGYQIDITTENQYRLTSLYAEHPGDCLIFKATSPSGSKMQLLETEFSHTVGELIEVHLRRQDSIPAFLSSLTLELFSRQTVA

[3] = target: T3, Mad1^CTD QRRI quadruple mutant (Q627A, R630A, I643A, R650A) (human, UniProt Q9Y6D9 597-718, Q627A | R630A | I643A | R650A); assay: as above; conditions: both partners purified
T3 construct: source: E. coli Rosetta 2 (DE3), purified (Strep-Tactin, TEV cleavage, Resource Q, Superdex 75); not shown: double Strep, N-terminal, cleaved; His6, N-terminal, cleaved
T3 sequence (looked up): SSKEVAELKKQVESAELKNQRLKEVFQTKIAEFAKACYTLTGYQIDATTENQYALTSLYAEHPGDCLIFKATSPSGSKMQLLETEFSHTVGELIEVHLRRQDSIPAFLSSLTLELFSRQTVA

[4] = target: T4, Mad1^CTD K619A (human, UniProt Q9Y6D9 597-718, Substituting Ala for Lys619); assay: as above; conditions: both partners purified
T4 construct: also called Ala for Lys619; source: E. coli Rosetta 2 (DE3), purified (Strep-Tactin, TEV cleavage, Resource Q, Superdex 75); not shown: double Strep, N-terminal, cleaved; His6, N-terminal, cleaved
T4 sequence (looked up): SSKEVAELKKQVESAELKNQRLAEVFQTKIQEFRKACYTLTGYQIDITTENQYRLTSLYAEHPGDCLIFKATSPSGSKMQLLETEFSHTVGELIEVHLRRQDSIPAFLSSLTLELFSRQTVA

[5] = target: T5, Mad1^CTD R630A (human, UniProt Q9Y6D9 597-718, R630A); assay: as above; conditions: both partners purified
T5 construct: also called Mad1 R630A mutant; source: E. coli Rosetta 2 (DE3), purified (Strep-Tactin, TEV cleavage, Resource Q, Superdex 75); not shown: double Strep, N-terminal, cleaved; His6, N-terminal, cleaved
T5 sequence (looked up): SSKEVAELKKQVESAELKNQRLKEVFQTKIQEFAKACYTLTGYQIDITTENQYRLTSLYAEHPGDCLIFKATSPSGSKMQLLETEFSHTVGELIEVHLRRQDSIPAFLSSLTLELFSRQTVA

[6] = target: T6, Mad1^CTD R650A (human, UniProt Q9Y6D9 597-718, R650A); assay: as above; conditions: both partners purified
T6 construct: also called alanine substitution of Arg650; source: E. coli Rosetta 2 (DE3), purified (Strep-Tactin, TEV cleavage, Resource Q, Superdex 75); not shown: double Strep, N-terminal, cleaved; His6, N-terminal, cleaved
T6 sequence (looked up): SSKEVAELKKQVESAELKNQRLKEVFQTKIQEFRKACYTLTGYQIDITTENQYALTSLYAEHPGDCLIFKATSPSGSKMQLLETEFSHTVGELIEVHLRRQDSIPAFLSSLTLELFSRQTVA

[7] = target: T7, Mad1^CTD QRI triple mutant (Q627A, R650A, I643A) (human, UniProt Q9Y6D9 597-718, Q627A | I643A | R650A); assay: as above; conditions: both partners purified
T7 construct: also called triple alanine mutant; source: E. coli Rosetta 2 (DE3), purified (Strep-Tactin, TEV cleavage, Resource Q, Superdex 75); not shown: double Strep, N-terminal, cleaved; His6, N-terminal, cleaved
T7 sequence (looked up): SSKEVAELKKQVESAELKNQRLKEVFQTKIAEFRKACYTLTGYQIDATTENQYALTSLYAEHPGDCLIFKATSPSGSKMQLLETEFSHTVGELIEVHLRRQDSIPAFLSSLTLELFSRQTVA

[8] = target: T8, Mad1^CTD I643A (human, UniProt Q9Y6D9 597-718, I643A); assay: as above; conditions: both partners purified
T8 construct: also called alanine substitution of Ile643; source: E. coli Rosetta 2 (DE3), purified (Strep-Tactin, TEV cleavage, Resource Q, Superdex 75); not shown: double Strep, N-terminal, cleaved; His6, N-terminal, cleaved
T8 sequence (looked up): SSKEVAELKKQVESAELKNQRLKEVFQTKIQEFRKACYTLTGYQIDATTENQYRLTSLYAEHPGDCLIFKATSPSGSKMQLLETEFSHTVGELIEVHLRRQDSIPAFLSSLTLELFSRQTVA

[9] = target: B3; assay: AUC; sedimentation equilibrium; 20 µM Mad1^CTD with 20 or 40 µM Bub1^CD1 peptide; 20 mM HEPES pH 7.5, 100 mM NaCl, 1 mM TCEP; 20°C; two-species model; conditions: both partners purified
[10] = target: the molecule itself; assay: as above
[11] = target: the molecule itself; assay: SEC-MALS; 100 µl of purified protein at 0.5-2.0 mg/ml on Superdex 200 Increase 10/300 GL, 0.5 ml/min

B1: doubly phosphorylated Bub1^CD1 peptide (pSer459-pThr461) (peptide)
peptide: KVQP[pS]P[pT]VHTKEALGFIMNMFQAPTS
notes: Bub1 conserved domain 1 (CD1), human, stated as residues 455-479; also called pSer459-pThr461 peptide; source: synthetic peptide (Designer Bioscience UK, 95% purity)
In the case of B1, the Kd [1] is reported as 3000 µM, the binding result [2] is reported as “binds” and the Kd [3] is reported as 25 µM. The Kd [4] was 10 µM, the Kd [5] was 10 µM and the binding result [6] was “binds”. The Kd [7] was 14.5 µM and the binding result [8] was “binds”.

B2: phosphorylated Bub1^CD1 peptide with an additional N-terminal tryptophan (peptide)
peptide: WKVQP[pS]P[pT]VHTKEALGFIMNMFQAPTS
notes: additional N-terminal tryptophan, added to confirm the peptide concentration; Bub1 conserved domain 1 (CD1), human, stated as residues 455-479; also called Bub1^CD1 peptide with an N-terminal tryptophan residue; source: synthetic peptide (Designer Bioscience UK, 95% purity)
In the case of B2, the “stoichiometry N” value [9] is reported as 1 peptide per Mad1^CTD dimer.

B3 was tested, and the “stoichiometry N” value [10] was 2.

B4: Mad1^CTD F629A (domain or fragment, human, UniProt Q9Y6D9 597-718, looked up)
chain: SSKEVAELKKQVESAELKNQRLKEVFQTKIQEARKACYTLTGYQIDITTENQYRLTSLYAEHPGDCLIFKATSPSGSKMQLLETEFSHTVGELIEVHLRRQDSIPAFLSSLTLELFSRQTVA
notes: Poorly expressed, prone to aggregate; the authors suspect a disrupted Mad1 conformation; also called F629A mutant; source: E. coli Rosetta 2 (DE3), purified (Strep-Tactin, TEV cleavage, Resource Q, Superdex 75); not shown: double Strep, N-terminal, cleaved; His6, N-terminal, cleaved
In the case of B4, the “stoichiometry N” value [11] is reported as 2.

B5: Mad1^CTD L618A (domain or fragment, human, UniProt Q9Y6D9 597-718, looked up)
chain: SSKEVAELKKQVESAELKNQRAKEVFQTKIQEFRKACYTLTGYQIDITTENQYRLTSLYAEHPGDCLIFKATSPSGSKMQLLETEFSHTVGELIEVHLRRQDSIPAFLSSLTLELFSRQTVA
notes: Poorly expressed, aggregated easily, eluted broadly; the authors suspect mis-folding of the dimer; also called L618A mutant; source: E. coli Rosetta 2 (DE3), purified (Strep-Tactin, TEV cleavage, Resource Q, Superdex 75); not shown: double Strep, N-terminal, cleaved; His6, N-terminal, cleaved
B5 was tested, and the “stoichiometry N” value [11] was 2.
